Numbering of substitutions follows the chain as printed.
How the values were obtained:
cannabinoid receptor = conditions: cited from earlier work
[1] = FABP binding to cannabinoids by ANS displacement (CBD as ligand); conditions: for binding to CBD by ANS displacement: 2 uM protein, 20 uM ANS, 33 uM CBD, decrease in fluorescence vs protein without ligand
[2] = FABP binding to cannabinoids by ANS displacement (THC as ligand); conditions: for binding to THC by ANS displacement: 2 uM protein, 20 uM ANS, 33 uM THC, decrease in fluorescence vs protein without ligand
[3] = listed as Wild type FABP from chicken

## C=C(C)[C@@H]1CCC(C)=C[C@H]1c1c(O)cc(CCCCC)cc1O [CBD, cannabidiol]
Cannabinoid receptor
  affinity for the cannabinoid receptor: do not have significant affinity

B1: mdl_r5_1652_ro: Rosetta-engineered pig (Sus scrofa) FABP1 variant, SEQ ID NO. 81 (protein, listed as Sus scrofa)
chain: MNFSGKYQVQSQENFEAFMKAVGQPDELIQKGKDIKGTSEIVQNGKHFKVTITTGSKVVQAEFTLGEECEAETDTGEKVKVVVQLEGDNKAVVTAKGIKAVFELNGDIITATATLGDIVFKRISKR
[1]; FIG. 7, ANS displacement
  binding to CBD relative to the wild type based on relative change in fluorescence: improved binding
[2]; FIG. 7, ANS displacement
  binding to THC relative to the wild type based on relative change in fluorescence: improved binding

B2: mdl_r3_1403_sm: Engineered chicken (Gallus gallus) FABP7 variant selected by Smina score, SEQ ID NO. 80 (protein, listed as Gallus gallus)
chain: MVEAFCATWKLADSHNQDEGLKALGVGFAMRQLFNVDKPTVIISSEGDKVVIRIEGTVKNTEISFKLGEEFDETTADDRNCKSVVTLDGDKLVHVQKWDGKETNVVREIKDGRMVATFTFGDVVAVAHYEKA
[1]
  binding to CBD by ANS displacement: no binding
[2]
  binding to THC by ANS displacement: no binding

B3: Plant FABP WT: Wild type FABP from the plant Rhodamnia argentea, SEQ ID NO. 77 (protein, listed as Rhodamnia argentea)
chain: MTEFAGVYEFVKDDGKFEEILKAMDVNFLIRKVAGKMNPNTAIDVLDDGKMAFKTITPLKTVEIHFELGKEYENKRLDGTVVKGIVTRDGNKLIQEQMSEPKFKVIRELDGPEKLIVTWMCKDIVCVREYKRIQT
[1]
  binding to CBD by ANS displacement: bind
[2]
  binding to THC by ANS displacement: bind

B4: Chicken FABP7 WT: Wild type chicken (Gallus gallus) FABP7, SEQ ID NO. 74 (protein, listed as Gallus gallus)
chain: MVEAFCATWKLADSHNFDEYMKALGVGFAMRQVGNVTKPTVIISSEGDKVVIRTQSTFKNTEISFKLGEEFDETTPDDRNCKSVVTLDGDKLVHVQKWDGKETNFVREIKDGRMVMTLTFGDVVAVRHYEKA
[1]
  binding to CBD by ANS displacement: no, or negligible binding
[1]; [3]
  binding to CBD by ANS displacement: no binding
[2]
  binding to THC by ANS displacement: no, or negligible binding
[2]; [3]
  binding to THC by ANS displacement: no binding

B5: mdl_r5_0225_ro: Engineered chicken (Gallus gallus) FABP7 variant selected by Rosetta score, SEQ ID NO. 79 (protein, listed as Gallus gallus)
chain: B4 chain with F17M, Y20A, M21L, L24W, M30I, G34A, T54M, P76A, F105V, L118V
[1]
  binding to CBD by ANS displacement: binding to CBD
[2]
  binding to THC by ANS displacement: not THC
